The results in this text go back to article PMC7276988, “Cryo-EM Structure of the Fork Protection Complex Bound to CMG at a Replication Fork” (Molecular Cell, 2020).

The target in assay [1] is replisome assembled in vitro on origin DNA (CMG-containing) (S. cerevisiae) (UniProt P29469).
Assay [2] addresses T1, Cdc45-MCM-GINS (CMG) helicase (S. cerevisiae, UniProt P29469 1-868; P24279 1-971; P30665 1-933; P29496 1-775; P53091 1-1017; P38132 …).
T1 construct: Mcm2, S. cerevisiae, subunit of MCM in CMG; Mcm3, S. cerevisiae, subunit of MCM in CMG; Mcm4, S. cerevisiae, subunit of MCM in CMG; Mcm5, S. cerevisiae, subunit of MCM in CMG; Mcm6, S. cerevisiae, subunit of MCM in CMG; Mcm7, S. cerevisiae, subunit of MCM in CMG; Cdc45, S. cerevisiae, subunit of CMG; Psf1, S. cerevisiae, subunit of GINS in CMG; Psf2, S. cerevisiae, subunit of GINS in CMG; Psf3, …
The experiment in a line: co-sedimentation; 10-30% glycerol gradient without cross-linker; 0.5 μM CMG with 1.5 molar excess of fork DNA, Csm3/Tof1 (or mutant), Ctf4 and Mrc1; 500 μM AMP-PNP, 3 mM Mg(OAc)2, 150 mM NaOAc, pH 7.5; 200,000g, 4°C, 2 h; silver-stained SDS-PAGE of fractions. Conditions: both partners purified.

In the next assay the target is T2, Cdc45 (S. cerevisiae, UniProt Q08032 1-650).
T2 construct: Cdc45, S. cerevisiae, subunit of CMG; source: S. cerevisiae, overexpressed, purified as part of CMG; in XL-MS part of the co-expressed, co-purified complex (yJY74)
T2 sequence: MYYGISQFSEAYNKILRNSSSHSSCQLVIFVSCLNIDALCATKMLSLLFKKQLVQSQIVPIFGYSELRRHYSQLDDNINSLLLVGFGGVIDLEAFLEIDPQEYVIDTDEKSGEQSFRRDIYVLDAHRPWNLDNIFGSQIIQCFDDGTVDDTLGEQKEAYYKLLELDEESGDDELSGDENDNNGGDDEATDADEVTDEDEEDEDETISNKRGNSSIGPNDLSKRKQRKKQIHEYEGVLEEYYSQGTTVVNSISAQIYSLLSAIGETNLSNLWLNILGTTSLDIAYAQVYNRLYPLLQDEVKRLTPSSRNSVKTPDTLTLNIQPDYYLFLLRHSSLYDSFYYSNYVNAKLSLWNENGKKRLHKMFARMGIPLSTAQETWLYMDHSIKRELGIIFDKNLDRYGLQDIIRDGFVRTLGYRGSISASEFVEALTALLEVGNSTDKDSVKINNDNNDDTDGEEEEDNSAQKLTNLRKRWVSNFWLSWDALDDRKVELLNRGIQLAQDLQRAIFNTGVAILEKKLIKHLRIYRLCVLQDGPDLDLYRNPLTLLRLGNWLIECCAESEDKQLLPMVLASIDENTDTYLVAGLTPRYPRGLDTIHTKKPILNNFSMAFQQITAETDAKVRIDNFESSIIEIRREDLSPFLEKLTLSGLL
The assay is described as follows: cryo-EM structure; reconstituted from purified CMG, fork DNA, Csm3/Tof1, Ctf4, Mrc1 with AMP-PNP; glycerol gradient fixation (glutaraldehyde and BS3). Conditions: both partners purified.

Chain of replisome assembled in vitro on origin DNA (CMG-containing) (S. cerevisiae) (P29469 whole entry, looked up): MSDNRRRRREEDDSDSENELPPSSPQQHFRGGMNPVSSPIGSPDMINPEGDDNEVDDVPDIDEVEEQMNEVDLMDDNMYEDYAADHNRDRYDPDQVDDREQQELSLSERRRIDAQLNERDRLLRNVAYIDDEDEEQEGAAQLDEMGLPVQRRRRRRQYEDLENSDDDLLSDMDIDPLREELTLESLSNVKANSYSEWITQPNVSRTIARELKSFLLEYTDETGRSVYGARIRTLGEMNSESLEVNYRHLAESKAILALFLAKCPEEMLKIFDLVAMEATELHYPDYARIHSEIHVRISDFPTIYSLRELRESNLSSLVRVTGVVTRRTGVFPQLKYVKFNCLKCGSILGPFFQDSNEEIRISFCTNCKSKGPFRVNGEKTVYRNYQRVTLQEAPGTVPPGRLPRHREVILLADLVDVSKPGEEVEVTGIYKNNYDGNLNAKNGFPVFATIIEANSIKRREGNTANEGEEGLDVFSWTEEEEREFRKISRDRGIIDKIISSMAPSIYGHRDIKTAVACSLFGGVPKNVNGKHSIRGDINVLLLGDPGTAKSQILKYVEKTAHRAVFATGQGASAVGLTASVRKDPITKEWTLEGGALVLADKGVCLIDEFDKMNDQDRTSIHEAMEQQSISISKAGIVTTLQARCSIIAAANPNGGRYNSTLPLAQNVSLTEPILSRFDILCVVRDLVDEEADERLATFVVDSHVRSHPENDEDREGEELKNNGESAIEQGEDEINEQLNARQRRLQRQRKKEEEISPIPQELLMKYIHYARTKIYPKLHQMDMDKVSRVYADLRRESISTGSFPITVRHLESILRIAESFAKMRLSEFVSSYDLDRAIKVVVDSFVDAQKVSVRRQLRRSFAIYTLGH

Take “Csm3/Tof1 heterodimer (from UniProt Q04659 1-317; P53840 1-1238) (complex)”: the concentration of Csm3/Tof1 that saturates origin-dependent replication (Figure S10H) in assay [1] is 10 nM.

B1: Csm3^(K47A, R48A, R49A, Q51A, K53A)/Tof1^(K400A, R401A, K404A) (complex, S. cerevisiae)
chain 1: MDQDFDSLLLGFNDSDSVQKDPTVPNGLDGSVVDPTIADPTAITARAAAPAVALTAEKLLSDKGLPYVLKNAHKRIRISSKKNSYDNLSNIIQFYQLWAHELFPKAKFKDFMKICQTVGKTDPVLREYRVSLFRDEMGMSFDVGTRETGQDLERQSPMVEEHVTSAEERPIVADSFAQDKRNVNNVDYDNDEDDDIYHLSYRNRRGRVLDERGNNETVLNNVVPPKEDLDALLKTFRVQGPVGLEENEKKLLLGWLDAHRKMEKGSMTEEDVQLIQSLEEWEMNDIEGQHTHYDLLPGGDEFGVDQDELDAMKEMGF
chain 2: MSADLQQGTTNAADFSLTVLRARIALLATAIGGPDYTSQIDPPPYKLGDDCLACLKDLKRWFKLVDDQQKRWDVAMAVAEYRILTDDLLPILIDWENKCSLAAKLAKNNPDHEEFRNKAYYDKIALNCLQLLVLMTWPLIVTEQSSSNQITLYGELKKHQLVYKKTILSMESGKVLRAAIRLALDVIKIDRLSRTPRDNMVLKLVLNFFRNVIAIEPGEFTINTKKSMPKKGITSIDTLPPNVSMDDISLNTVISSFHKNKVFGFLLTLTSSLSKEFDQDFINIPLLEIMFYFTKDVNQELLFPRQFETGTHSKVVNKNESSSANNIVTSAGFELSKLLQKEHQMRKNVIKHTSARHSRFGGLLSIQTPDKTRLTVSGSQALVDEKIALQKLDDSKKWNAAIIAKHQSVAAEGLPNSLLNSQTGKAIFFTESNGKHFKEFINNFIDSGFNILLHSVTNYFTTEQDRMVTLEQVEYLLFFAWFVKYQLLRSKIDNSADIKQVSEALKEVTFILVSSLLRSAYDLKNWTVTHAGMIAFNELLNLVSRTKAAQEEDSTDIEFIVSRLFSDERIQLLSNLPKIGSKYSLQFMKSCIELTHSVLKVLEQYSDDKTLVIEGKSRRQKKFNISEGDITKLIEEENVDRDEALDILTSSLRSIEVNFQKVQANYMTEPVIETYINFLERFRELEDDSIKKVFSFFHRVFVQAKEQALLFRFDLIILLREMLSPDGLDRMSRSRKYVSQFSDYFLARLKKRLKKSPAWFVGLLFPPLHNSEVGFYQRYGEYNVLNNESMYAAPASQFKPIPDEEALPPSILLDMKYGVLVSTLLDDGKTELLDQLLKHITHTLDIFKSWLTVNVNAGKETVNPPNEYFTLTGVLNNDPIFKDKDYRALLLLIGYSIPRKINEPCFLPGTVEVSDLTVSCELVKKYLSTPFETPNGLPSSSYLLRVRSEKDSFSHNEQDGWEGDDDYDYNDPYIVPDDQILSKSDAAYFKDLDNNASDKLKGTKFSKGIARSKKKDKRKRRKGEAKTNLPMFGDQDDERPQTVRERHGVFSKEFISDSEDDEDLMNPIFFENETYMRWLLDKNNGQLTEDRYIQFAKFAAERMNNGGVVTGDYTSLFGGSIPSIESIRATESSSFAPDKSLISLASHVASEMSIFDVNNNNNNQLSDDDVNSESRNSLGSSQPSNSQNMFQSEVYSRKESTKRSLEASAADESDEDEEAIRLFGKKSRVVLSQGDSDD
notes: also called Csm3-5A/Tof1-3A; source: S. cerevisiae, overexpressed, purified as a heterodimer
Take B1: the binding result in assay [2] is reported as “binds”.

B2: Mrc1 (natural protein, S. cerevisiae, UniProt P25588 1-1096, looked up)
chain: MDDALHALSSLTAKKRTTTYKKVAVPILDENDNTNGNGPNDIDNPPELTGNGFLFANATLNRVKNRLEGKKAPEQNHNNGKDRSENSLPTQLISNLYDGGEELEKSEVKDNSYSEKNVSSSFTQTQRIPVSIQQDKVFNVPIHSVNDGKPTQLIKEDGLVNETSQALKTPLTTGRPGATQRIDSSGATSQTQPIKSIEPQSQIITTSSNHSNALSPKIPIIPTELIGTSPLFQSIQNRGPDTQMDVPPQTAHDEDKTQAIGIPQATHQEQKTQIDTVAQTLQDEVPHTLKIREIQSELASEDSKREKARNVEYKKPQKPIPTKKFFSKESFLADFDDSSSNEDDDIKLENAHPKPVQNDDELHENKSVELNLTDETRINEKRVPLLSSYANNLKREIDSSKCITLDLDSDSDEYGDDDMDSIKLSKDESVLPISQLSKATILNLKARLSKQNQKLSQRPNKSKDPKVDHNVLLNTLRKASRKQILDHQKEVIETKGLKLEDMAKEKEIVENLLEQEILRNKRIRQKEKRREKLEENDFQLNAHDSGSDSGSESSGFALSGNEIADYESSGSENDNRRESDSEKEDDEIILKQKKSHHVKHIINESDSDTEVEAKPKEKADESLPKRIAINLGHYGDNIGEDTDKFQETNVLDTQNIEEVMAERNTIENEVKDDVYVNEEADEAIRRQLIDKEKLQLKQKEKEHEAKIKELKKRGVTNFFEMEAEESEDEWHGIGGADGEGSDDYDSDLEKMIDDYSKNNFNPHEIREMLAAENKEMDIKMINKILYDIKNGGFRNKRAKNSLELELSDDDEDDVLQQYRLKRRELMRKRRLEIGDDAKLVKNPKSSAFFESMVEDIIEYKNPFGAEEEYNLDITSTATDLDTQDNSINVGDNTGNNEQKPVDQKNKKVIISEDFVQKSLSFLKSNNYEDFETDKELSRIQHGNDEAIEDLYTLKQNSSIKSFTNSQTDSTTSKTVNTIIDLEKRPEDEDEVENGDTSLVGVFKHPSIIKSFASRTDINDKFKEGNKTVKILKSYKTVGSSKASITYMGKTRKLIAPKRKTEGSHRYHHDHHNKKMKMKTKTKSNKLFESGQDSFDN
notes: Mrc1, S. cerevisiae; printed as a 125 kDa protein; The FLAG purification is told for the separately purified protein; source: S. cerevisiae, overexpressed at 20°C, purified (anti-FLAG M2, Superose 6)
For the molecule B2, the stoichiometry N (usually the number of molecules, sites or subunits per partner or assembly) in assay [2] was roughly 1 Mrc1 per complex.

B3: Psf2 (natural protein, S. cerevisiae)
chain: MSLPAHLQQTFSPEEIQFIVENEPIKIFPRITTRQKIRGDDRGTGNHTRWQLITTDDKALNNMVAMRSTEVVLWIALLLKQQSKCSIVAPQWLTTKELDRKIQYEKTHPDRFSELPWNWLVLARILFNKAKDDFHDPIHELRGKIQDLREIRQIKVLKGLKYLNESHLQLDNLSLLEINELRPFITEIMDKLREIHTASLTAGTENDEEEFNI
notes: also called GINS subunit Psf2; source: S. cerevisiae, overexpressed, purified as part of CMG
On to B3, for which the binding result with Cdc45 is reported as “binds”.
